Measurements taken from US7247703.

What follows are binders tested against HLA-A2.1 class I MHC molecule on T2 cells (human) (assay: T2 class I MHC stabilization assay, anti-HLA-A2 immunofluorescent staining, peptide vs medium alone). Conditions: remark: other sources report otherwise.

HLYQGCQVV [p 48-56 HER-2/neu peptide …] and CLTSTVQLV [p 789-797 HER-2/neu peptide …] are the same in % Increase of class I stabilization on T2: 20% for the first, 20% for the second.

TLSPGKNGV [p 1172-1180 HER-2/neu peptide …] showed a % Increase of class I stabilization on T2 of 10%.
